The source of these data is publication PMC3785425.

Assay [1] addresses NKTT120 (human (humanized antibody)). Briefly: SPR; Biacore 3000; NKTT120 immobilised on the chip; FcγRI, FcγRIIIa or C1q as analyte at six different concentrations; BiaEvaluation software. (SPR reads the build-up and loss of mass on a sensor chip optically.)
Assay [2] has the same target.

Chain of NKTT120 (human (humanized antibody)) (heavy, as listed by the source, chain 1 of 2): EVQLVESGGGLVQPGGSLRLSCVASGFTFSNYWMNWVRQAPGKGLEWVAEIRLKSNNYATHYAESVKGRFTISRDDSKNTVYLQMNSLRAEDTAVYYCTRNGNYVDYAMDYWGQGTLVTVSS
Chain of NKTT120 (human (humanized antibody)) (light, as listed by the source, chain 2 of 2): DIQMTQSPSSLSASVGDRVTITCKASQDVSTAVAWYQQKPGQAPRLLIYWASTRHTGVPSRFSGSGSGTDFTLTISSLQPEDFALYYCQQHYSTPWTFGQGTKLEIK
Chain of FcγRIIIa (P08637 17-254): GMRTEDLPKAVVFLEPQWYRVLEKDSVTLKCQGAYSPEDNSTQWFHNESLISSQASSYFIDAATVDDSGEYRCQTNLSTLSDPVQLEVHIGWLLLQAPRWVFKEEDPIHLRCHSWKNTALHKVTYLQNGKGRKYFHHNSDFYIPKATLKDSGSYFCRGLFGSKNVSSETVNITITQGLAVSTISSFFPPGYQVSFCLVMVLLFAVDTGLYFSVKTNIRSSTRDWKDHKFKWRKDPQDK
Chain of FcγRI (P12314 16-374): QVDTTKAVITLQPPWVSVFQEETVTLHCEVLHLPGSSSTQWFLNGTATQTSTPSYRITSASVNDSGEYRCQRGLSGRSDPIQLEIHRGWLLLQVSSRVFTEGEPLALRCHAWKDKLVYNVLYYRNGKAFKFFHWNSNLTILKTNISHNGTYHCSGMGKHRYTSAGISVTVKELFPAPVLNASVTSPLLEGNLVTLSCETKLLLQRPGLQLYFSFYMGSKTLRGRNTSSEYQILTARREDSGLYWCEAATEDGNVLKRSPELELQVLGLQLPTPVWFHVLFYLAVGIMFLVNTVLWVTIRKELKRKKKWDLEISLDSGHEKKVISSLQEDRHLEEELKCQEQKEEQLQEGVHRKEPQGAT

As a reminder, the Kd is the equilibrium constant for the complex coming apart. A higher Kd goes with a looser complex. As to “FcγRI (from UniProt P12314 16-374) (receptor)”, the Kd in assay [1] was found to be 12 nM. This lies in the double-digit nanomolar range.

Consider “FcγRIIIa (from UniProt P08637 17-254) (receptor)”, for which the ADCC, cell killing of iTCR-expressing target cells by CD16-transduced NK-92 effector cells (E:T 60:1), NKTT120 at 1 and 20 µg/ml (34% to 44%) in assay [2] was determined as 44%. In addition, in assay [1], the Kd came to 122 nM.
